# Legend:
# purified protein [1] = substrate: CC(=O)C=O; assay: purified protein; type: biochemical, Arabidopsis thaliana; details: true substrate is the hemithioacetal of MGO and GSH (preformed 30 min; HTA concentration calculated with Kdiss 3.0 mM), 1.7 mM GSH, 0.5 mM Ni2+, 100 mM MOPS pH 7.0, 25 °C
# purified protein [2] = substrate: O=CC=O; assay: purified protein; type: biochemical, Arabidopsis thaliana; details: true substrate is the hemithioacetal of GO and GSH (preformed 30 min; HTA concentration calculated with Kdiss 3.0 mM), 1.7 mM GSH, 0.5 mM Mn2+, 100 mM MOPS pH 7.0, 25 °C
Protein,Km (purified protein [1]),kcat (purified protein [1]),kcat/Km (purified protein [1]),Km (purified protein [2]),kcat (purified protein [2]),kcat/Km (purified protein [2])
"GLXI;2 (Col-0 GLXI;2) (Arabidopsis thaliana) (protein, monomer; two domains, active site 2 (His89, Glu137, Gln150, Glu201)) MAEASDLLEWPKKDNRRFLHVVYRVGDLDRTIEFYTEVFGMKLLRKRDIPEEKYSNAFLGFGPETSNFVVELTYNYGVSSYDIGTGFGHFAISTQDVSKLVENVRAKGGNVTREPGPVKGGGSVIAFVKDPDGYTFELIQRGPTPEPFCQVMLRVGDLDRAIKFYEKALGMRLLRKIERPEYKYTIGMMGYAEEYESIVLELTYNYDVTEYTKGNAYAQIAIGTDDVYKSGEVIKIVNQELGGKITREAGPLPGLGTKIVSFLDPDGWKTVLVDNKDFLKELE",297 ± 14 µM,7.5 ± 0.9 s⁻¹,25300 ± 1700 M⁻¹ s⁻¹,411 ± 18 µM,2.8 ± 0.3 s⁻¹,6800 ± 600 M⁻¹ s⁻¹
"GLXI;2 (Col-0 GLXI;2) (Arabidopsis thaliana; F278I/K229N) (protein, monomer; two domains, active site 2 (His89, Glu137, Gln150, Glu201)) MAEASDLLEWPKKDNRRFLHVVYRVGDLDRTIEFYTEVFGMKLLRKRDIPEEKYSNAFLGFGPETSNFVVELTYNYGVSSYDIGTGFGHFAISTQDVSKLVENVRAKGGNVTREPGPVKGGGSVIAFVKDPDGYTFELIQRGPTPEPFCQVMLRVGDLDRAIKFYEKALGMRLLRKIERPEYKYTIGMMGYAEEYESIVLELTYNYDVTEYTKGNAYAQIAIGTDDVYNSGEVIKIVNQELGGKITREAGPLPGLGTKIVSFLDPDGWKTVLVDNKDILKELE",302 ± 15 µM,8.1 ± 1.1 s⁻¹,25800 ± 2100 M⁻¹ s⁻¹,407 ± 15 µM,2.6 ± 0.3 s⁻¹,6700 ± 500 M⁻¹ s⁻¹
"GLXI;2 (Col-0 GLXI;2) (Arabidopsis thaliana; K229N) (protein, monomer; two domains, active site 2 (His89, Glu137, Gln150, Glu201)) MAEASDLLEWPKKDNRRFLHVVYRVGDLDRTIEFYTEVFGMKLLRKRDIPEEKYSNAFLGFGPETSNFVVELTYNYGVSSYDIGTGFGHFAISTQDVSKLVENVRAKGGNVTREPGPVKGGGSVIAFVKDPDGYTFELIQRGPTPEPFCQVMLRVGDLDRAIKFYEKALGMRLLRKIERPEYKYTIGMMGYAEEYESIVLELTYNYDVTEYTKGNAYAQIAIGTDDVYNSGEVIKIVNQELGGKITREAGPLPGLGTKIVSFLDPDGWKTVLVDNKDFLKELE",295 ± 23 µM,9.1 ± 1.7 s⁻¹,26400 ± 2200 M⁻¹ s⁻¹,415 ± 17 µM,2.4 ± 0.3 s⁻¹,6500 ± 500 M⁻¹ s⁻¹
"GLXI;2 (Col-0 GLXI;2) (Arabidopsis thaliana; F278I) (protein, monomer; two domains, active site 2 (His89, Glu137, Gln150, Glu201)) MAEASDLLEWPKKDNRRFLHVVYRVGDLDRTIEFYTEVFGMKLLRKRDIPEEKYSNAFLGFGPETSNFVVELTYNYGVSSYDIGTGFGHFAISTQDVSKLVENVRAKGGNVTREPGPVKGGGSVIAFVKDPDGYTFELIQRGPTPEPFCQVMLRVGDLDRAIKFYEKALGMRLLRKIERPEYKYTIGMMGYAEEYESIVLELTYNYDVTEYTKGNAYAQIAIGTDDVYKSGEVIKIVNQELGGKITREAGPLPGLGTKIVSFLDPDGWKTVLVDNKDILKELE",311 ± 18 µM,8.4 ± 1.2 s⁻¹,27000 ± 2400 M⁻¹ s⁻¹,403 ± 12 µM,2.5 ± 0.4 s⁻¹,6200 ± 300 M⁻¹ s⁻¹
